# Measurements taken from patent US20170101664.
# B1: Lyn kinase (protein)
# chain: MGCIKSKGKDSLSDDGVDLKTQPVRNTERTIYVRDPTSNKQQRPVPESQLLPGQRFQTKDPEEQGDIVVALYPYDGIHPDDLSFKKGEKMKVLEEHGEWWKAKSLLTKKEGFIPSNYVAKLNTLETEEWFFKDITRKDAERQLLAPGNSAGAFLIRESETLKGSFSLSVRDFDPVHGDVIKHYKIRSLDNGGYYISPRITFPCISDMIKHYQKQADGLCRRLEKACISPKPQKPWDKDAWEIPRESIKLVKRLGAGQFGEVWMGYYNNSTKVAVKTLKPGTMSVQAFLEEANLMKTLQHDKLVRLYAVVTREEPIYIITEYMAKGSLLDFLKSDEGGKVLLPKLIDFSAQIAEGMAYIERKNYIHRDLRAANVLVSESLMCKIADFGLARVIEDNEYTAREGAKFPIKWTAPEAINFGCFTIKSDVWSFGILLYEIVTYGKIPYPGRTNADVMTALSQGYRMPRVENCPDELYDIMKMCWKEKAEERPTFDYLQSVLDDFYTATEGQYQQQP
# Molecular target: biosensor SEQ ID NO:47 (KbiotinkkafpaayiaeG-photo-cleavable linker-…rrrqrrkkr)
protein,measurement,value
B1,phosphorylation in the in vitro kinase assay,Lyn kinase did not phosphorylate the biosensor
